{"source": "patent US6984382", "about": "(dated 2006)", "molecular_target": "T1, purified extracellular domain of the erbB-2 protein (human, UniProt P04626 23-652)", "T1 construct": "extracellular domain; also called erbB-2^ecd; soluble erbB-2 receptor", "assay": "flow cytometry", "procedure": "Cell surface expression and erbB-2 receptor binding ability of the scFv(FRP5):hinge:ζ protein in transduced C196 CTL and in transduced Jurkat cells are confirmed by flow cytometry.\nSingle-cell suspensions of 5 ×10^5 viable cells (Jurkat cells, JFYZ.4 cells, C196 cells, CFYZ.1 cells) are stained with the purified extracellular domain of the erbB-2 protein (erbB-2^ecd, expressed in Sf9 insect cells using a baculovirus expression vector; Disis et al., Cancer Res. 54, 16–20 (1994)) for 1 hour followed by the FITC-conjugated anti-erbB-2 monoclonal antibody FSP77 (European patent application EP-A-502 812) for 45 min at 4° C. in 100 µl PBS containing 1% BSA and 0.1% sodium azide. FSP77 also is specific for the extracellular domain of the erbB-2 receptor, but recognizes a different epitope from mAb FRP5 (I. M. Harwerth et al., J. Biol. Chem. 21, 15160–15167 (1992))."}
{"binder": "scFv(FRP5):hinge:ζ protein (receptor, Stood on the surface of transduced murine CTL C196 (clone CFYZ.1) and human Jurkat cells (clone JFYZ.4); On cells it is found as disulfide-linked homodimers and as heterodimers with endogenous ζ; also called scFv(FRP5):hinge:zeta; scFv:hinge:ζ) QIQLVQSGPELKKPGETVKISCKASGYPFTNYGMNWVKQAPGQGLKWMGWINTSTGESTFADDFKGRFDFSLETSANTAYLQINNLKSEDMATYFCARWEVYHGYVPYWGQGTTVTVSSGGGGSGGGGSGGGGSDIQLTQSHKFLSTSVGDRVSITCKASQDVYNAVAWYQQKPGQSPKLLIYSASSRYTGVPSRFTGSGSGPDFTFTISSVQAEDLAVYFCQQHFRTPFTFGSGTKLEIKALEISNSVMYFSSVVPVLQKVNSTTTKPVLRTPSPVHPTGTSQPQRPEDCRPRGSVKGTGLDFLEDPKLCYLLDGILFIYGVIITALYLRAKFSRSAETAANLQDPNQLYNELNLGRREEYDVLEKKRARDPEMGGKQQRRRNPQEGVYNALQKDKMAEAYSEIGTKGERRRGKGHDGLYQGLSTATKDTYDALHMQTLAPR", "values": [{"measurement": "binding result", "result": "binds"}]}
